Publication PMC4731272
Positions count from the first letter of the chain named.

T1: mTet3-CXXC (Mus musculus (mouse), UniProt Q8BG87 51-96)
T1 chain: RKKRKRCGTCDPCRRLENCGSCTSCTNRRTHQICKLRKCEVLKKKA

T2: XtTet3-CXXC (Xenopus tropicalis, UniProt A0JP82 58-99)
T2 chain: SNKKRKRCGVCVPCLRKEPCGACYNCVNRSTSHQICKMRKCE

T3: mTet3-CXXC H81A (Mus musculus (mouse), UniProt Q8BG87 51-96, H81A)
T3 chain: T1 chain with H31A

T4: mTet3-CXXC K88A (Mus musculus (mouse), UniProt Q8BG87 51-96, K88A)
T4 chain: T1 chain with K38A

T5: mTet3-CXXC T80A (Mus musculus (mouse), UniProt Q8BG87 51-96, T80A)
T5 chain: T1 chain with T30A

T6: mTet3-CXXC Q82A (Mus musculus (mouse), UniProt Q8BG87 51-96, Q82A)
T6 chain: T1 chain with Q32A

B1: CmCG DNA (dsDNA)
DNA 1: GAATCCGGATTC
DNA 2: GAATCCGGATTC
modifications: 5-methyl-dC at position 6 of both strands
B2: CfCG DNA (dsDNA)
DNA 1: GAATCCGGATTC
DNA 2: GAATCCGGATTC
modifications: 5-formyl-dC at position 6 of both strands
B3: CCG DNA (dsDNA)
DNA 1: GAATCCGGATTC
DNA 2: GAATCCGGATTC
B4: CcaCG DNA (dsDNA)
DNA 1: GAATCCGGATTC
DNA 2: GAATCCGGATTC
modifications: 5-carboxyl-dC at position 6 of both strands
B5: hemi-CcaCG DNA (dsDNA)
DNA 1: GAATCCGGATTC
DNA 2: GAATCCGGATTC
modifications: 5-carboxyl-dC at position 6 of one strand only
B6: ChmCG DNA (dsDNA)
DNA 1: GAATCCGGATTC
DNA 2: GAATCCGGATTC
modifications: 5-hydroxymethyl-dC at position 6 of both strands

What was measured:
Test in all cases: ITC
mTet3-CXXC = target: T1, mTet3-CXXC
XtTet3-CXXC = target: T2, XtTet3-CXXC
mTet3-CXXC H81A = target: T3, mTet3-CXXC H81A
mTet3-CXXC K88A = target: T4, mTet3-CXXC K88A
mTet3-CXXC T80A = target: T5, mTet3-CXXC T80A
mTet3-CXXC Q82A = target: T6, mTet3-CXXC Q82A

| Binder | Kd (mTet3-CXXC) [nM] | Kd (XtTet3-CXXC) [nM] | binding result (mTet3-CXXC H81A) | Kd (mTet3-CXXC K88A) [nM] | Kd (mTet3-CXXC T80A) [nM] | Kd (mTet3-CXXC Q82A) [nM] |
| --- | --- | --- | --- | --- | --- | --- |
| B1 | 5590 | 9000 | – | – | – | – |
| B2 | 6130 | 10400 | – | – | – | – |
| B3 | 1880 | 2580 | no binding | 5320 | 1790 | 2380 |
| B4 | 560 | 1300 | no binding | – | 910 | 970 |
| B5 | 1570 | – | – | – | – | – |
| B6 | – | 18600 | – | – | – | – |
